Values of other authors, collected in publication PMC5641599 (Molecular Metabolism, 2017).
Like-named read-outs stand apart in the source and are kept apart here.

Assays:
MC4R variants [1] = conditions: cited from earlier work
MC4R variants [2] = conditions: cited from earlier work; remark: listed apart in the source
MC4R variants [3] = conditions: ref Larsen LH, J Clin Endocrinol Metab, 2005, cited from earlier work
[4] = ref Rong R, Clin Endocrinol, 2006
[5] = COS-7 cell line, ref Hughes DA, Hum Genet, 2009
[6] = COS-7 cell line, ref Brumm H, Obesity, 2012
[7] = ref Wang ZQ, Biochim Biophys Acta, 2011
[8] = COS-7 cell line, ref Hinney A, J Clin Endocrinol Metab, 2006
[9] = ref Fan ZC, J Cell Mol Med, 2009
[10] = ref Srinivasan S, J Clin Invest, 2004
[11] = ref Xiang Z, Biochemistry, 2010
[12] = ref Lubrano-Berthelier C, J Clin Endocrinol Metab, 2006

Substance: C40R
- Cell surface expression (MC4R variants [1]; [4]): 100 % of WT
- Basal activity (MC4R variants [2]; COS-7 cell line, ref Tarnow P, J Biol Chem, 2003): 112 % of WT
- Basal activity (MC4R variants [2]; [4]): 157 % of WT

Substance: C40Y
- Cell surface expression (MC4R variants [1]; [5]): 49 % of WT
- Basal activity (MC4R variants [2]; [5]): 108 % of WT

Substance: D37G
- Cell surface expression (MC4R variants [1]; ref Hughes DA, Hum Genet, 2009): 100 % of WT
- Basal activity (MC4R variants [2]; ref Hughes DA, Hum Genet, 2009): 83 % of WT

Substance: E61X (MVNSTHRGMHTSLHLWNRSSYRLHSNASESLGKGYSDGGCYEQLFVSPEVFVTLGVISLL; nonsense E61X; UniProt P32245 1-60, looked up, fragment)
- Cell surface expression (MC4R variants [1]; [6]): 5 % of WT

Substance: G32E
- Basal activity (MC4R variants [2]; limited data, ref Ahituv N, Am J Hum Genet, 2007): 70 % of WT

Substance: G34A
- Cell surface expression (MC4R variants [1]; ref Moore BS, PLoS One, 2014): 85 % of WT

Substance: MT-II
- cAMP Emax - Ligand no.2 (% of WT) (MC4R variants [3]; MC4R A219V, ligand no.2 MT-II): 34.0 % of WT
- cAMP Emax - Ligand no.2 (MC4R variants [3]; MC4R S36Y): 86.0 % of WT

Substance: Q307X
- Cell surface expression (MC4R variants [1]; [6]): 40 % of WT
- Cell surface expression (MC4R variants [1]; ref Santoro N, BMC Med Genet, 2009): 31 % of WT
- Cell surface expression (MC4R variants [1]; [7]): 20 % of WT
- Basal activity (MC4R variants [2]; [7]): 20 % of WT

Substance: R7C
- Cell surface expression (MC4R variants [1]; [8]): 100 % of WT
- Cell surface expression (MC4R variants [1]; [9]): 45 % of WT
- Basal activity (MC4R variants [2]; [8]): 133 % of WT
- Basal activity (MC4R variants [2]; [9]): 100 % of WT

Substance: R7H
- Cell surface expression (MC4R variants [1]; [10]): 80 % of WT
- Cell surface expression (MC4R variants [1]; [11]): 100 % of WT

Substance: R18C
- Cell surface expression (MC4R variants [1]; [12]): 115 % of WT
- Cell surface expression (MC4R variants [1]; [10]): 95 % of WT
- Cell surface expression (MC4R variants [1]; ref Xiang Z, Biochemistry, 2006): 45 % of WT
- Basal activity (MC4R variants [2]; [12]): 36 % of WT

Substance: R18H
- Cell surface expression (MC4R variants [1]; [12]): 150 % of WT
- Cell surface expression (MC4R variants [1]; [10]): 95 % of WT
- Cell surface expression (MC4R variants [1]; [11]): 85 % of WT
- Basal activity (MC4R variants [2]; [12]): 46 % of WT
